Here are results for two compounds from paper PMC4761994, “Unraveling and engineering the production of 23,24-bisnorcholenic steroids in sterol metabolism” (Scientific Reports, 2016).

One data set addresses T1, Hsd4AMN (Mycolicibacterium neoaurum, UniProt A0A0H3W613).
T1 construct: gene hsd4A
Briefly: NADH oxidation at […] nm, Michaelis-Menten fit. The settings on record: NADH 125 μM; 125 mM Tris-HCl pH 8.0; 30 °C. It counts as biochemical.

The subject of data set [1] is C[C@]12CC[C@H]3[C@@H](CCC4=CC(=O)CC[C@@]43C)[C@@H]1CC[C@@H]2O. The data set is described as follows: purified protein. Type of data set: biochemical, Mycolicibacterium neoaurum. The settings on record: NAD+ 100 μM, 100 mM Tris-HCl pH 7.8, 30 °C, pH 7.8.
Data set [2] concerns CC(O)CC(=O)SCCNC(=O)CCNC(=O)[C@H](O)C(C)(C)COP(=O)(O)OP(=O)(O)OC[C@H]1O[C@@H](n2cnc3c(N)ncnc32)[C@H](O)[C@@H]1OP(=O)(O)O. The data set is described as follows: purified protein. It counts as biochemical, Mycolicibacterium neoaurum. Particulars: NAD+ 125 μM, 125 mM glycine-NaOH pH 9.0, 30 °C, DL mixture of substrate, pH 9.0.
The subject of data set [3] is C[C@]12CC[C@H]3[C@@H](CCC4=CC(=O)C=C[C@@]43C)[C@@H]1CC[C@@H]2O. The data set is described as follows: purified protein. Type of data set: biochemical, Mycolicibacterium neoaurum. The settings on record: NAD+ 100 μM, 100 mM Tris-HCl pH 7.8, 30 °C, pH 7.8.

With `CC(=O)CC(=O)SCCNC(=O)CCNC(=O)[C@H](O)C(C)(C)COP(=O)(O)OP(=O)(O)OC[C@H]1O[C@@H](n2cnc3c(N)ncnc32)[C@H](O)[C@@H]1OP(=O)(O)O` [acetoacetyl-CoA], on Hsd4AMN, the Km turned out to be 101 ± 27 µM.

As for “Hsd4AMN (Mycolicibacterium neoaurum ATCC 25795)”, the Km in data set [1] amounted to 23 ± 7 µM; in data set [2] it was 124 ± 39 µM; in data set [3] it was 19 ± 4 µM. The maximal velocity (Vmax) was found to be 0.169 µmol/min/mg in data set [1], 0.113 µmol/min/mg in data set [2] and 0.217 µmol/min/mg in data set [3].

The term Km denotes the substrate concentration at which the rate is half of its maximum. What is called Vmax is the top rate of the reaction or transport when substrate is in excess.
